The supplement of paper PMC9732359
± gives the uncertainty stated by the source.

Experiment: protein stability index of a GFP-peptide fusion (yeast GPS) (PSI 1-4); higher = more stable; sorted into four equal gates, so the index is relative within each strain
Outline: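 Peptides tiling yeast proteins in 17-residue segments were fused downstream of GFP, with Cherry expressed from the same plasmid. As a pooled library in yeast, mid-log cultures grown in leucine-free medium were sorted into four equal gates by GFP/Cherry fluorescence ratio. Gate plasmids were PCR-amplified and Illumina-sequenced, and barcodes linked reads to strains. Each peptide received a protein stability index equal to the sum of each gate's read frequency times its gate number.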

| Sequence | protein stability index (doa10∆) | protein stability index (pdr5∆) | protein stability index (san1∆) | protein stability index (ubr1∆) |
| --- | --- | --- | --- | --- |
| RKLAVERAGHLLCDKAQ [PRE5] | 3.47 ± 0.15 | 3.18 ± 0.11 | 3.12 ± 0.072 | 3.37 ± 0.14 |
| PPPGLDELETKAEKKVE [PRP8] | 3.02 ± 0.06 | 3.21 ± 0.048 | 3.13 ± 0.05 | 3.08 ± 0.049 |
| KNKENNTFTWNHSLQHQ [RPN4] | 2.37 ± 0.083 | 2.34 ± 0.096 | 2.25 ± 0.067 | 1.95 ± 0.046 |
| PIPIPAFADRLGQYVQA [PRE10] | 2.21 ± 0.08 | 1.95 ± 0.062 | 1.75 ± 0.11 | 2.07 ± 0.097 |
| SDPAAKKTATEPKQKAN [SRP21] | 3.21 ± 0.11 | 3.04 ± 0.09 | 3.32 ± 0.046 | 3.01 ± 0.11 |
| SAKMILLSDPTITIKSY [PRP8] | 2.23 ± 0.078 | 1.91 ± 0.09 | 3.1 ± 0.099 | 2.92 ± 0.069 |
| NKLVMKSKFNKSNRSYS [GAL11] | 2.92 ± 0.059 | 2.99 ± 0.099 | 3.01 ± 0.064 | 3.01 ± 0.053 |
| YGILSIDDLIHEIITVG [RPL7A] | 2.36 ± 0.079 | 2.37 ± 0.1 | 2.58 ± 0.11 | 1.56 ± 0.061 |
| IREKVAKQALDLYHFAL [SNF2] | 2.52 ± 0.092 | 2.64 ± 0.098 | 2.62 ± 0.094 | 2.54 ± 0.056 |
| SLGFNEVFSRPEWMILT [RPO21] | 1.5 ± 0.11 | 1.74 ± 0.1 | 1.62 ± 0.12 | 1.21 ± 0.066 |
| NKPAIKEDSTIQDSNGD [SWI3] | 2.92 ± 0.076 | 3.05 ± 0.073 | 3.14 ± 0.06 | 3.04 ± 0.054 |
| VVPDLGHLNGHTPTIAS [SSN2] | 2.15 ± 0.045 | 2.65 ± 0.055 | 2.69 ± 0.048 | 2.59 ± 0.038 |
| NECIASTSNALKVLSGD [SNF12] | 2.89 ± 0.059 | 2.86 ± 0.07 | 2.86 ± 0.05 | 2.79 ± 0.062 |
| NNNNKSINKNNKEMHTD [SSN2] | 3.01 ± 0.087 | 2.99 ± 0.082 | 2.75 ± 0.073 | 3.17 ± 0.093 |
| LIQQVPPGLDALVKPET [CDC53] | 3.02 ± 0.12 | 2.98 ± 0.13 | 2.83 ± 0.13 | 3.24 ± 0.14 |
| ETQFKLSRPYKALKTNI [CDC53] | 2.19 ± 0.045 | 2.39 ± 0.051 | 2.23 ± 0.05 | 2.45 ± 0.052 |
| RKNFKMGPLYQNFAEFM [IRR1] | 1.33 ± 0.037 | 1.54 ± 0.06 | 1.72 ± 0.078 | 1.67 ± 0.038 |
| KDPDVPLVLLQQIPLLC [POP3] | 2.33 ± 0.055 | 2.57 ± 0.064 | 2.4 ± 0.06 | 2.47 ± 0.052 |
| MGSRRYDSRTTIFSPEG [PRE9] | 3.36 ± 0.2 | 3.01 ± 0.17 | 2.89 ± 0.19 | 3.06 ± 0.15 |
| RDQGNDSLNDDLNKENK [YIL149C/MLP2] | 3.23 ± 0.18 |  | 3.01 ± 0.15 | 3.32 ± 0.063 |
| ARYVIATSTKVSVEGVN [RPL6A] | 1.62 ± 0.051 | 1.52 ± 0.048 | 1.47 ± 0.11 | 1.27 ± 0.034 |
| SGTYHLNCGNGMGIGFI [POP1] | 3.07 ± 0.077 | 2.93 ± 0.063 | 2.44 ± 0.077 | 3.11 ± 0.041 |
| NEQLTLLSKKHGQLKLS [RPN5] | 1.6 ± 0.066 | 2.34 ± 0.062 | 1.83 ± 0.081 | 2.4 ± 0.079 |
| SYSPTSPSYSPTSPNYS [RPO21] | 2.88 ± 0.065 | 2.96 ± 0.056 | 2.84 ± 0.054 | 3.066 ± 0.028 |
| VPLTKRYQHLEKITQIS [PCI8] | 2.39 ± 0.28 | 2.22 ± 0.11 |  | 1.71 ± 0.096 |
| LFRAIYLYCLDNNITEM [YCG1] | 2.08 ± 0.052 | 2.09 ± 0.044 | 2.1 ± 0.061 | 2.38 ± 0.05 |

| Sequence | protein stability index (doa10∆) | protein stability index (pdr5∆) | protein stability index (san1∆) | protein stability index (ubr1∆) |
| --- | --- | --- | --- | --- |
| NIQHLLYGKRFFPYYVH [PRE7] | 1.25 ± 0.031 | 1.45 ± 0.037 | 1.36 ± 0.091 | 1.3 ± 0.039 |
| TFSYVDSSLQPEYFESP [YMR129W/POM152] | 3.22 ± 0.2 | 3.07 ± 0.13 |  | 3.08 ± 0.22 |
| SKLRNNIRSQLLSENRS [SRP54] | 2.8 ± 0.069 | 2.58 ± 0.094 | 2.67 ± 0.06 | 2.85 ± 0.049 |
| VIITDGTLLREDDNTPA [YDL088C/ASM4] | 2.94 ± 0.077 | 2.9 ± 0.081 | 2.94 ± 0.056 | 3.01 ± 0.042 |
| SHILNSHSLALNEITNS [DSN1] | 2.14 ± 0.033 | 2.41 ± 0.035 | 2.28 ± 0.037 | 2.36 ± 0.03 |
| DPSQNRLTGSLLAHKVA [RPC37] | 2 ± 0.05 | 2.15 ± 0.06 | 1.69 ± 0.095 | 2.31 ± 0.038 |
| DEIKAQRKEIKDRISSC [SMC4] | 3 ± 0.062 | 3.03 ± 0.054 | 3.13 ± 0.061 | 3.07 ± 0.053 |
| LLKYSNETKKRNFLETV [RPL1A] | 3 ± 0.25 | 2.72 ± 0.23 |  |  |
| ESRKAFFLGYMINRLLL [RPB2] | 1.17 ± 0.092 | 1.17 ± 0.11 | 1.12 ± 0.09 | 1.09 ± 0.072 |
| KTTNTTPSFSFGAKSDE [YJL041W/NSP1] | 3.27 ± 0.079 | 3.24 ± 0.082 | 3.09 ± 0.035 | 3.18 ± 0.048 |
| LPEQLKSGKFCSHCGCV [SNM1] | 2.79 ± 0.084 | 3.11 ± 0.15 | 2.89 ± 0.076 | 2.7 ± 0.071 |
| GAQFSRSYDLTRHQNTI [RPN4] | 1.16 ± 0.12 | 1.67 ± 0.11 | 1.85 ± 0.18 | 2.53 ± 0.099 |
| PVIGVFQKFLTGHPKGA [FAS2] | 3.34 ± 0.19 | 2.79 ± 0.16 | 2.57 ± 0.2 | 3.52 ± 0.24 |
| EEAYDNPHDTLNRIKKY [PRP8] | 3.42 ± 0.13 | 3.2 ± 0.093 | 2.27 ± 0.17 | 3.4 ± 0.085 |
| GNSERPSAVAGFINQKN [YIL149C/MLP2] | 3.31 ± 0.1 | 3.29 ± 0.12 | 2.93 ± 0.097 | 3.03 ± 0.051 |
| IHALAAKLLQENDTTLV [FAS1] | 2.53 ± 0.13 | 2.8 ± 0.14 | 2.86 ± 0.12 | 3.33 ± 0.18 |
| EGYGLRDVMCTDGVIGS [RPO31] | 2.35 ± 0.11 | 3.29 ± 0.14 | 2.58 ± 0.14 | 2.84 ± 0.06 |
| PPETKLPYPTYWSDKKA [SNF5] | 2.91 ± 0.085 | 2.82 ± 0.062 | 3.15 ± 0.056 | 2.86 ± 0.053 |
| DLSWSKQTDTGITHFRA [PRP8] | 2.85 ± 0.085 | 3.11 ± 0.057 | 3 ± 0.055 | 3.02 ± 0.049 |
| KTCAKSVIQLCGGINDS [ECM29] | 3.43 ± 0.26 |  |  |  |
| RGRPPKARNGLDYVRTP [SNF2] | 1.52 ± 0.096 | 1.67 ± 0.087 | 2.41 ± 0.13 | 3.09 ± 0.074 |
| FEGVTHRWGTKKLPRKT [RPL3] | 3.31 ± 0.11 | 2.98 ± 0.13 | 3.11 ± 0.082 | 3.34 ± 0.061 |
| GSAELRNSYPASFYSVN [RPN3] | 3.12 ± 0.21 | 3.15 ± 0.11 | 2.87 ± 0.059 | 3.55 ± 0.092 |
| KEFKGIKVTVQLKIQNR [RPL12A] | 1.3 ± 0.08 | 1.62 ± 0.071 |  | 2.4 ± 0.09 |
| QNIMTLPDGKNGNLEEE [MED6] | 3.37 ± 0.064 | 3.23 ± 0.11 | 3.37 ± 0.056 | 3.31 ± 0.091 |
| KVFVPPKSKSLPNEMSQ [RPO31] | 3.1 ± 0.13 | 3.14 ± 0.12 | 3.09 ± 0.16 | 2.87 ± 0.13 |
